Publication PMC4990646, “DELLA proteins are common components of symbiotic rhizobial and mycorrhizal signalling pathways” (Nature Communications, 2016)

B1: HIS-MtDELLA1 (natural protein, M. truncatula, UniProt A0A396IUP1 1-594, looked up)
chain: MKREHQESFGGGVISNNNKTNTNHLNSSKNINFGECSSMQNTNTKQNMWREEKETNGGGMDELLAALGYKVRSSDMADVAQKLEQLEMVMGSAQEEGINHLSSDTVHYDPTDLYSWVQTMLTELNPDSSQINDPLASLGSSSEILNNTFNDDSEYDLSAIPGMAAYPPQEENTAAKRMKTWSEPESEPAVVMSPPPAVENTRPVVLVDTQETGVRLVHTLMACAEAIQQKNLKLAEALVKHISLLASLQTGAMRKVASYFAQALARRIYGNPEETIDSSFSEILHMHFYESSPYLKFAHFTANQAILEAFAGAGRVHVIDFGLKQGMQWPALMQALALRPGGPPTFRLTGIGPPQADNTDALQQVGWKLAQLAQTIGVQFEFRGFVCNSIADLDPNMLEIRPGEAVAVNSVFELHTMLARPGSVEKVLNTVKKINPKIVTIVEQEANHNGPVFVDRFTEALHYYSSLFDSLEGSNSSSNNSNSNSTGLGSPSQDLLMSEIYLGKQICNVVAYEGVDRVERHETLTQWRSRMGSAGFEPVHLGSNAFKQASTLLALFAGGDGYRVEENNGCLMLGWHTRSLIATSAWKLPQNESK
notes: MtDELLA1 of Medicago truncatula; the trigger factor is inferred from the vector pCold-TF; also called HIS-tagged MtDELLA1; source: E. coli, purified (Ni-NTA Agarose); not shown: His tag, N-terminal, kept
B2: HIS-MtDELLA2 (natural protein, M. truncatula, UniProt A0A396GMX6 1-533, looked up)
chain: MKREHKLEHEDMSSGSGKSGVCWEDDGGGMDELLAVVGYKVKSSDMAEVAQKLEQLEQAMMGNNFHDHDESTIAQHLSNDTVHYNPSDISNWLQTMLSNFDPQPNNPSVNSDDNDLNAIPGKAIYAADEFTSRKRVKRNESVTVTTESTTTRPIMVVETQEKGIRLVHSLMACAEAVEQNNLKMAEALVKQIGYLAVSQEGAMRKVATYFAEGLARRIYGVFPQHSVSDSLQIHFYETCPNLKFAHFTANQAILEAFQGKSSVHVIDFSINQGMQWPALMQALALRPGGPPAFRLTGIGPPASDNSDHLQQVGWRLAQFAQTIHVQFEYRGFVANSLADLDASMLELRSPETESVAVNSVFELHKLNARPGALEKVFSVIRQIRPEIVTVVEQEANHNGPAFLDRFTESLHYYSTLFDSLEGSSVEPQDKAMSEVYLGKQICNVVACEGTDRVERHETLNQWRNRFNSAGFSPVHLGSNAFKQASMLLALFAGGDGYKVEENDGCLMLGWHTRPLIATSAWKLAAANSVVVSH
notes: MtDELLA2 of Medicago truncatula; the trigger factor is inferred from the vector pCold-TF; also called HIS-tagged MtDELLA2; source: E. coli, purified (Ni-NTA Agarose); not shown: His tag, N-terminal, kept

Assays:
Assay in all cases: pull-down; MBP fusion on amylose resin captures purified HIS-tagged MtDELLA; western blot with anti-MBP and anti-HIS
Details in all cases: both partners purified
MBP-NSP2 = biological target: T1, MBP-NSP2 (M. truncatula, UniProt Q5NE24 1-508)
T1 construct: NSP2 of Medicago truncatula; source: E. coli, purified (amylose resin), held on the resin; not shown: MBP, N-terminal, kept
T1 sequence (Q5NE24 whole entry, the tested form may be a part): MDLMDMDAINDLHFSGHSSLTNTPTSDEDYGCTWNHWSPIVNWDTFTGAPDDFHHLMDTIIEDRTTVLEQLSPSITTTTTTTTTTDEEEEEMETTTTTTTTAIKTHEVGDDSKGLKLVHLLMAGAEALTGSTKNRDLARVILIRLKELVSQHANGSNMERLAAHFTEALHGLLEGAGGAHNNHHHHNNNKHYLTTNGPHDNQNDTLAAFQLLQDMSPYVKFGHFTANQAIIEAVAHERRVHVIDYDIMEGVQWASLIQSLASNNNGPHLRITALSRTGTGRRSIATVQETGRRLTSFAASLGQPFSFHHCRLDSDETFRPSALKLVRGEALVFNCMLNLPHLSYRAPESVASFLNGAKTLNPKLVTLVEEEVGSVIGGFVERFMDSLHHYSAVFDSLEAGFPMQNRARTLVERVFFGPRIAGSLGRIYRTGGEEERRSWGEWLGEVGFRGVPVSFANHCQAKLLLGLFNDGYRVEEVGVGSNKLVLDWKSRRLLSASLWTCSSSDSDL

HIS-MtDELLA2 = biological target: B2
HIS-MtDELLA1 = biological target: B1

| Binder | binding result (MBP-NSP2) | binding result (HIS-MtDELLA2) | binding result (HIS-MtDELLA1) |
| --- | --- | --- | --- |
| B1 | binds | – | – |
| MBP-IPD3 (natural protein, M. truncatula, UniProt A7TUE1 1-513, looked up, IPD3 (CYCLOPS) of Medicago truncatula; also called MBP-IPD3 fusion protein; source: E. coli, purified (amylose resin), held on the resin; not shown: MBP, N-terminal, kept) MEGRGFSGLYKNSSEELFLKTVMESPIGMPVPTMEMLGFKTVSQSFRTDSEELFKRWLTNDQEGYNSSSMGLNSRLSKRISTEIANMSNQQHIGVASEGRNNDKSCLQNNFLANDVSSDFNFPIRDPVDRELQSSNLFLAKAWFITDQRMTRSRSSELRRRYTEMQNSQAPQGLDSMFMVPEHDTNTIKEELANFNGFDYLSMCELPSQKGTFMSPSNSSSSTFNTHQLVDVDKVSSCVSMLKGTLQRKKLECQVEKEAAEDGLNEIFCIREPLFQSAFNEEESWNQQKLVNVQGDFTDQVNDPGVMQTLEGTTNFVLDGFANQTNQIQGRTASGEPSQSESSAAAPVISSGLDACEGPSNSNQTLGDSSWKQVGESTQNKVRGVREQIMDNLKDDRKRKSLERYGSVTSAVSDGKMDNTKKRRVERSRKMAEAKERNLTPTIPSDMQAILKRCENLEKEVRSLKLNLSFMNRKDSEQTKQIEDLQKQNEDLADEKERLLEEIERILSETGKI | – | binds | binds |
| B2 | binds | – | – |
